Consider one protein from patent US20230383269A1 (DSM AUSTRIA, published 2023).

The data set concerns the molecule itself. Description: Blue-Native-PAGE, oligomeric conformation (self-association of identical chains). From the text: Comparison of the native molecular weight (oligomeric conformation) between single purified zearalenone-cleaving polypeptides was done via Blue-Native-PAGE. Dilutions of the elutes were supplied with not denaturating loading dye (e.g. 2× loading dye: 0.126 M tris(hydroxymethyl)aminomethan/hydrochloric acid pH 6.8, 20.0% glycerol, 4.0% Coomassie Blue G-250) and separated on a 4-15% polyacrylamid gel under native conditions (e.g. Mini-PROTEAN® Tetra Cell System, 1658004EDU+4-15% Mini-PROTEAN® TGX™ Precast Protein Gels, 4561083EDU, Bio-Rad Laboratories GmbH) (5× Anode Buffer: 0.125 M Tris(hydroxymethyl)aminomethane, 0.960 M Glycine, 1× Kathode Buffer: Anode Buffer+0.02% Coomassie Blue G250; 200 V, 40 minutes). The peptide bands were visualized by Coomassie staining. The oligomeric state of selected zearalenone-cleaving polypeptides was determined by size exclusion chromatography, SEC-MALS or X-Ray crystallography. Homo-dimers (e.g. SEQ ID NO. 1) migrated faster across the BN-PAGE gel matrix, while homo-tetramers (e.g. SEQ ID NO. 2-35) were retained in the gel matrix to a higher extent. The oligomeric conformation of the zearalenone-cleaving polypeptides was determined relatively to the migration of homo-dimeric and homo-tetrameric peptides.

B1: parent alpha/beta hydrolase of SEQ ID NO: 1 (enzyme)
chain: MTDQSPETRDIFVPHAFEEQQVDLGEVVMNYVEAGSADHPALLLLPEQTGSWWSYEPVIGLLAESFHVFAVDIRGQGRSTWTPKRYSLDNFGNDLVRFISLVVKRPVIVSGNSSGGVLAAWLSAYAMPGQIRAALCEDTPFFASELVPAHGHSVRQAAGPAFELYRNFLGDQWSVADWDGFAAAAKASPSKIMSLFPSSDEPPQNLKEYDPEWARAFFEGTVALHCPHDLMLSQVKTPILITHHARAVDPHSGDLLGALSDFQAERAQAIIESAGVPVEYASFPDALHMMHQFEPERFAEVLTSWVARLPADTPGAHHHHHH
notes: homo-dimer; also called wildtype parent alpha/beta hydrolase; zearalenone-cleaving polypeptide
Consider B1, for which the binding result was “binds”.
